B1: P-0702 (Fc fusion)
chain 1: DKTHTCPPCPAPEAAGAPSVFLFPPKPKDTLMISRTPEVTCVVVDVSHEDPEVKFNWYVDGVEVHNAKTKPREEQYNSTYRVVSVLTVLHQDWLNGKEYKCKVSNKALPAPIEKTISKAKGQPREPQVCTLPPSREEMTKNQVSLWCLVKGFYPSDIAVEWESNGQPENNYKTTPPVLDSDGSFFLYSKLTVDKSRWQQGNVFSCSVMHEALHNHYTQKSLSLSPGGGGSGGGSAPTSSSTKKTQLQLEHLLLDLQMILNGINNYKNPKLTRMLTAKFYMPKKATELKHLQCLEEFLKPLEEVLNLAQSKNFHLRPRDLISNINVIVLELKGSETTFMCEYADETATIVEFLNRWITFIQSIISTLT
chain 2: DKTHTCPPCPAPEAAGAPSVFLFPPKPKDTLMISRTPEVTCVVVDVSHEDPEVKFNWYVDGVEVHNAKTKPREEQYNSTYRVVSVLTVLHQDWLNGKEYKCKVSNKALPAPIEKTISKAKGQPREPQVYTLPPCREEMTKNQVSLSCAVKGFYPSDIAVEWESNGQPENNYKTTPPVLDSDGSFFLVSKLTVDKSRWQQGNVFSCSVMHEALHNHYTQKSLSLSPG
notes: knob chain carries the IL-2 variant; hole-Fc; monovalent; also called IL-2 F42A/E62F/S125I monovalent Fc fusion
B2: P-0703 (Fc fusion)
chain 1: DKTHTCPPCPAPEAAGAPSVFLFPPKPKDTLMISRTPEVTCVVVDVSHEDPEVKFNWYVDGVEVHNAKTKPREEQYNSTYRVVSVLTVLHQDWLNGKEYKCKVSNKALPAPIEKTISKAKGQPREPQVCTLPPSREEMTKNQVSLWCLVKGFYPSDIAVEWESNGQPENNYKTTPPVLDSDGSFFLYSKLTVDKSRWQQGNVFSCSVMHEALHNHYTQKSLSLSPGGGGSGGGSAPTSSSTKKTQLQLEHLLLDLQMILNGINNYKNPKLTRMLTAKFYMPKKATELKHLQCLEEELKHLEEVLNLAQSKNFHLRPRDLISNINVIVLELKGSETTFMCEYADETATIVEFLNRWITFIQSIISTLT
chain 2: DKTHTCPPCPAPEAAGAPSVFLFPPKPKDTLMISRTPEVTCVVVDVSHEDPEVKFNWYVDGVEVHNAKTKPREEQYNSTYRVVSVLTVLHQDWLNGKEYKCKVSNKALPAPIEKTISKAKGQPREPQVYTLPPCREEMTKNQVSLSCAVKGFYPSDIAVEWESNGQPENNYKTTPPVLDSDGSFFLVSKLTVDKSRWQQGNVFSCSVMHEALHNHYTQKSLSLSPG
notes: knob chain carries the IL-2 variant; hole-Fc; monovalent; also called IL-2 F42A/P65H/S125I monovalent Fc fusion
B3: P-0880 (antibody, human IgG1, kappa)
heavy 1: not shown
heavy 2: EVQLVESGGGLVKPGGSLRLSCAASGFTFSSYDMSWVRQAPGKGLEWVATISGGGSYTYYPDSVKGRFTISRDNAKNSLYLQMNSLRAEDTAVYYCASPDSSGVAYWGQGTLVTVSSASTKGPSVFPLAPSSKSTSGGTAALGCLVKDYFPEPVTVSWNSGALTSGVHTFPAVLQSSGLYSLSSVVTVPSSSLGTQTYICNVNHKPSNTKVDKKVEPKSCDKTHTCPPCPAPEAAGAPSVFLFPPKPKDTLMISRTPEVTCVVVDVSHEDPEVKFNWYVDGVEVHNAKTKPREEQYNSTYRVVSVLTVLHQDWLNGKEYKCKVSNKALPAPIEKTISKAKGQPREPQVCTLPPSREEMTKNQVSLSCAVKGFYPSDIAVEWESNGQPENNYKTTPPVLDSDGSFFLVSKLTVDKSRWQQGNVFSCSVMHEALHNHYTQKSLSLSPG
light: DIVMTQSPLSLPVTPGEPASITCKASQDVETVVAWYLQKPGQSPRLLIYWASTRHTGVPDRFSGSGSGTDFTLKISRVEAEDVGVYYCQQYSRYPWTFGQGTKLEIKRTVAAPSVFIFPPSDEQLKSGTASVVCLLNNFYPREAKVQWKVDNALQSGNSQESVTEQDSKDSTYSLSSTLTLSKADYEKHKVYACEVTHQGLSSPVTKSFNRGEC
B4: P-0882 (antibody, human IgG1, kappa)
heavy 1: EVQLVESGGGLVKPGGSLRLSCAASGFTFSSYDMSWVRQAPGKGLEWVATISGGGSYTYYPDSVKGRFTISRDNAKNSLYLQMNSLRAEDTAVYYCASPDSSGVAYWGQGTLVTVSSASTKGPSVFPLAPSSKSTSGGTAALGCLVKDYFPEPVTVSWNSGALTSGVHTFPAVLQSSGLYSLSSVVTVPSSSLGTQTYICNVNHKPSNTKVDKKVEPKSCDKTHTCPPCPAPEAAGAPSVFLFPPKPKDTLMISRTPEVTCVVVDVSHEDPEVKFNWYVDGVEVHNAKTKPREEQYNSTYRVVSVLTVLHQDWLNGKEYKCKVSNKALPAPIEKTISKAKGQPREPQVYTLPPCREEMTKNQVSLWCLVKGFYPSDIAVEWESNGQPENNYKTTPPVLDSDGSFFLYSKLTVDKSRWQQGNVFSCSVMHEALHNHYTQKSLSLSPGGGGGSGGGGSGGGGSAPTSSSTKKTQLQLEHLLHDLQMILNGINNYKNPKLTRMLTFKFYMPKKATELKHLQCLEEELKRLEEVLNLAQSKNFHLRPRDLISNINVIVLELKGSETTFMCEYADETATIVEFLNRWITFIQSIISTLT
heavy 2: EVQLVESGGGLVKPGGSLRLSCAASGFTFSSYDMSWVRQAPGKGLEWVATISGGGSYTYYPDSVKGRFTISRDNAKNSLYLQMNSLRAEDTAVYYCASPDSSGVAYWGQGTLVTVSSASTKGPSVFPLAPSSKSTSGGTAALGCLVKDYFPEPVTVSWNSGALTSGVHTFPAVLQSSGLYSLSSVVTVPSSSLGTQTYICNVNHKPSNTKVDKKVEPKSCDKTHTCPPCPAPEAAGAPSVFLFPPKPKDTLMISRTPEVTCVVVDVSHEDPEVKFNWYVDGVEVHNAKTKPREEQYNSTYRVVSVLTVLHQDWLNGKEYKCKVSNKALPAPIEKTISKAKGQPREPQVCTLPPSREEMTKNQVSLSCAVKGFYPSDIAVEWESNGQPENNYKTTPPVLDSDGSFFLVSKLTVDKSRWQQGNVFSCSVMHEALHNHYTQKSLSLSPG
light: DIVMTQSPLSLPVTPGEPASITCKASQDVETVVAWYLQKPGQSPRLLIYWASTRHTGVPDRFSGSGSGTDFTLKISRVEAEDVGVYYCQQYSRYPWTFGQGTKLEIKRTVAAPSVFIFPPSDEQLKSGTASVVCLLNNFYPREAKVQWKVDNALQSGNSQESVTEQDSKDSTYSLSSTLTLSKADYEKHKVYACEVTHQGLSSPVTKSFNRGEC
B5: P-0885 (antibody, human IgG1, kappa)
heavy 1: EVQLVESGGGLVKPGGSLRLSCAASGFTFSSYDMSWVRQAPGKGLEWVATISGGGSYTYYPDSVKGRFTISRDNAKNSLYLQMNSLRAEDTAVYYCASPDSSGVAYWGQGTLVTVSSASTKGPSVFPLAPSSKSTSGGTAALGCLVKDYFPEPVTVSWNSGALTSGVHTFPAVLQSSGLYSLSSVVTVPSSSLGTQTYICNVNHKPSNTKVDKKVEPKSCDKTHTCPPCPAPEAAGAPSVFLFPPKPKDTLMISRTPEVTCVVVDVSHEDPEVKFNWYVDGVEVHNAKTKPREEQYNSTYRVVSVLTVLHQDWLNGKEYKCKVSNKALPAPIEKTISKAKGQPREPQVYTLPPCREEMTKNQVSLWCLVKGFYPSDIAVEWESNGQPENNYKTTPPVLDSDGSFFLYSKLTVDKSRWQQGNVFSCSVMHEALHNHYTQKSLSLSPGGGGGSGGGGSGGGGSAPTSSSTKKTQLQLEHLLQDLQMILNGINNYKNPKLTRMLTFKFYMPKKATELKHLQCLEEELKRLEEVLNLAQSKNFHLRPRDLISNINVIVLELKGSETTFMCEYADETATIVEFLNRWITFIQSIISTLT
heavy 2: EVQLVESGGGLVKPGGSLRLSCAASGFTFSSYDMSWVRQAPGKGLEWVATISGGGSYTYYPDSVKGRFTISRDNAKNSLYLQMNSLRAEDTAVYYCASPDSSGVAYWGQGTLVTVSSASTKGPSVFPLAPSSKSTSGGTAALGCLVKDYFPEPVTVSWNSGALTSGVHTFPAVLQSSGLYSLSSVVTVPSSSLGTQTYICNVNHKPSNTKVDKKVEPKSCDKTHTCPPCPAPEAAGAPSVFLFPPKPKDTLMISRTPEVTCVVVDVSHEDPEVKFNWYVDGVEVHNAKTKPREEQYNSTYRVVSVLTVLHQDWLNGKEYKCKVSNKALPAPIEKTISKAKGQPREPQVCTLPPSREEMTKNQVSLSCAVKGFYPSDIAVEWESNGQPENNYKTTPPVLDSDGSFFLVSKLTVDKSRWQQGNVFSCSVMHEALHNHYTQKSLSLSPG
light: DIVMTQSPLSLPVTPGEPASITCKASQDVETVVAWYLQKPGQSPRLLIYWASTRHTGVPDRFSGSGSGTDFTLKISRVEAEDVGVYYCQQYSRYPWTFGQGTKLEIKRTVAAPSVFIFPPSDEQLKSGTASVVCLLNNFYPREAKVQWKVDNALQSGNSQESVTEQDSKDSTYSLSSTLTLSKADYEKHKVYACEVTHQGLSSPVTKSFNRGEC

Legend:
[1] = target: T1, IL-2Rα-ECD (human, UniProt P01589 22-240); assay: ELISA, IL-2Rα-ECD coated
T1 construct: coated on ELISA plates at 0.1 µg/well; also called CD25; receptor subunit α
T1 sequence: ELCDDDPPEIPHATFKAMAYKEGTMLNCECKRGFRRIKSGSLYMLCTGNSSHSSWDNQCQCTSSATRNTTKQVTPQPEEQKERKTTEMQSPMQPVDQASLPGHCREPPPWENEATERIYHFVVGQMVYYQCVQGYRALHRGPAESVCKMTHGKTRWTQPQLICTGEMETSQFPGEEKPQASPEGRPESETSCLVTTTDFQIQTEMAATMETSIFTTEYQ
Protocol: A panel of IL-2 muteins was expressed as C-terminal fusions to the Fc homodimer of Fc heterodimer and screened for binding to IL-2Rα in enzyme-linked immunosorbent assay (ELISA). Briefly, IL-2Rα-ECD (SEQ ID NO: 5) was coated onto the wells of Nunc Maxisorp 96-well microplates at 0.1 μg/well. After overnight incubation at 4° C. and blocking with superblock (Thermo Fisher), 3-fold serial dilutions of IL-2 Fc fusion proteins starting at 100 nM were added to each well at 100 μI/well. Following one-hour incubation at room temperature, 100 μl/well of goat anti-human IgG Fc-HRP (1:5000 diluted in diluent) were added to each well and incubated at room temperature for 1 hour. Wells were thoroughly aspirated and washed three times with PBS/0.05% Tween-20 following each step. Finally, 100 μl TMB substrate was added to each well; the plate was developed at room temperature in the dark for 10 minutes, and 100 μl/well of stop solution (2N Sulfuric acid, Ricca Chemical) was added. Absorbance was determined at 450 nm and curves were fit using Prism software (Graph Pad).

[2] = target: T2, IL-2Rβγ on human CD8+ T cells, NK cells and CD4+ T cells (human, UniProt P14784 27-551; P31785 23-369); assay: cell-based or functional assay
T2 sequence (looked up) 1: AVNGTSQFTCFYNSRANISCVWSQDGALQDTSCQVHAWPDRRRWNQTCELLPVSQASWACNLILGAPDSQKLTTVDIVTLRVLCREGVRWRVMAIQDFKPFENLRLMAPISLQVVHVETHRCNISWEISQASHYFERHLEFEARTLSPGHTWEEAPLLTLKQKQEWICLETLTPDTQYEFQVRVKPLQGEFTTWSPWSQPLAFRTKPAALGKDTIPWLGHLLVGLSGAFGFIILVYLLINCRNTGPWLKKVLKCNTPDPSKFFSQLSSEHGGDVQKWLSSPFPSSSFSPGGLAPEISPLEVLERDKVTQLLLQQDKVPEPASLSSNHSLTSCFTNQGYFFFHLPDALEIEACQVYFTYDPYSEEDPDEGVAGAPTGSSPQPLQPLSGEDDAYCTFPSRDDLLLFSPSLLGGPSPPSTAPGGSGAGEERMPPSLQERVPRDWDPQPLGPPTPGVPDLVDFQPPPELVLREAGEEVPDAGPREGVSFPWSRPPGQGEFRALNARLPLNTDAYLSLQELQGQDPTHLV
T2 sequence (looked up) 2: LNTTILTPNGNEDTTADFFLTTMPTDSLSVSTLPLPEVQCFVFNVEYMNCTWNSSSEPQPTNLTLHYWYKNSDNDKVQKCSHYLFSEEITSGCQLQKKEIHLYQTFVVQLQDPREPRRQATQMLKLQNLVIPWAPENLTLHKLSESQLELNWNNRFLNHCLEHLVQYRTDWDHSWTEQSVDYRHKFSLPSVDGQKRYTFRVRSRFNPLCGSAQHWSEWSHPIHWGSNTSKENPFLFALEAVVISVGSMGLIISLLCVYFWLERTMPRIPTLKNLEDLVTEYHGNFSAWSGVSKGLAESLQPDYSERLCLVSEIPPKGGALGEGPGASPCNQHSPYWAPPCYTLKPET

| Binder | Binding EC50 vs P-0689 [1] | binding result [1] | Ki67 EC50 (nM), CD8+ T [2] | Ki67 EC50 (nM), NK [2] | pSTA5 EC50 (pM), CD8+ T [2] | pSTA5 EC50 (pM), NK [2] |
| --- | --- | --- | --- | --- | --- | --- |
| B1 | > 500 fold (ratio of EC50s) | no binding |  |  |  |  |
| B2 | > 500 fold (ratio of EC50s) | no binding |  |  |  |  |
| B3 |  |  | 1.7 nM | 3.6 nM | 73 pM | 643 pM |
| B4 |  |  | 77 nM | 230 nM | 513 pM | 9920 pM |
| B5 |  |  | 9.3 nM | 21 nM | 249 pM | 2330 pM |

— patent US20220235109A1 (CUGENE, published 2022)
